In PMC8199477:

Target: urate oxidase from Deinococcus radiodurans (DrUox) (Deinococcus radiodurans R1)
Assay: SEC; Superdex 200 (10/300) GL, 20 mM Tris-HCl pH 8.0, 100 mM NaCl, 0.5 mL/min; size by interpolation against protein markers

stoichiometry N: 4
Substance: urate oxidase from Deinococcus radiodurans (DrUox) (enzyme)
